Each block holds one binder with its values, some of them ahead of it.
Key:
Assay in all cases: holdup assay
Set-up in all cases: key: below the threshold = too weak to quantify, mostly under pKd 3.1 to 4
TJP2_1, Q9UDY2 = biological target: TJP2_1, Q9UDY2
MPP2, Q14168 = biological target: T1, MPP2, Q14168
T1 sequence (Q14168 180-250, limits assumed, looked up): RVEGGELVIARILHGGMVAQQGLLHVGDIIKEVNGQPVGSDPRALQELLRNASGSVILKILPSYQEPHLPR

PARD3B_1, Q8TEW8 = biological target: T2, PARD3B_1, Q8TEW8
T2 sequence (Q8TEW8 196-299, limits assumed, looked up): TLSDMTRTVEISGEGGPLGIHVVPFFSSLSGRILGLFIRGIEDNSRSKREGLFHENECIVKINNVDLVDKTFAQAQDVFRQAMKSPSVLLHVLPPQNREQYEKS

PDLIM1, O00151 = biological target: PDLIM1, O00151
NHERF3_3, Q5T2W1 = biological target: T3, NHERF3_3, Q5T2W1
T3 sequence (Q5T2W1 238-333, limits assumed, looked up): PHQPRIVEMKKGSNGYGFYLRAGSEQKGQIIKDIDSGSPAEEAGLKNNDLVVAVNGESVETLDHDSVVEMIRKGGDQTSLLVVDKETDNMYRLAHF

CARD11, Q9BXL7 = biological target: T4, CARD11, Q9BXL7
T4 sequence (Q9BXL7 662-765, limits assumed, looked up): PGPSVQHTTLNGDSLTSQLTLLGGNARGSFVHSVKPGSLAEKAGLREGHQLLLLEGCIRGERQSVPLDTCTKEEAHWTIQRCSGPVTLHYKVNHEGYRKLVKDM

GORASP2, Q9H8Y8 = biological target: GORASP2, Q9H8Y8
LDB3, O75112 = biological target: LDB3, O75112
SCRIB_3, Q14160 = biological target: SCRIB_3, Q14160
GRIP2_4, Q9C0E4 = biological target: GRIP2_4, Q9C0E4
NHERF3_4, Q5T2W1 = biological target: T5, NHERF3_4, Q5T2W1
T5 sequence (Q5T2W1 373-468, limits assumed, looked up): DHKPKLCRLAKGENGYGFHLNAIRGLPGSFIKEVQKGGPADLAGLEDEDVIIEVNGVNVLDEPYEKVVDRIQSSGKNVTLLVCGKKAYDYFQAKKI

NHERF4_4, Q86UT5 = biological target: NHERF4_4, Q86UT5
LNX1_2, Q8TBB1 = biological target: LNX1_2, Q8TBB1
HTRA4, P83105 = biological target: T6, HTRA4, P83105
T6 sequence (P83105 378-476, limits assumed, looked up): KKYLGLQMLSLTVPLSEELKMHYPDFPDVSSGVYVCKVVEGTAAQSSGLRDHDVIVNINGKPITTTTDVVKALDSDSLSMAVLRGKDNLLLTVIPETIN

PDZD7_3, Q9H5P4 = biological target: T7, PDZD7_3, Q9H5P4
T7 sequence (Q9H5P4 857-944, limits assumed, looked up): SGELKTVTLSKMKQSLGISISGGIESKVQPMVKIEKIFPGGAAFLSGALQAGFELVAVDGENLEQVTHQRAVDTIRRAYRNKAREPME

SHANK1, Q9Y566 = biological target: T8, SHANK1, Q9Y566
T8 sequence (Q9Y566 658-767, limits assumed, looked up): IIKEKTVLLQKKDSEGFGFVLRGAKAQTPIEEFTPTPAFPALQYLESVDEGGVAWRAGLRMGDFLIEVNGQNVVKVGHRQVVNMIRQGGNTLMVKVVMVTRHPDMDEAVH

FRMPD1, Q5SYB0 = biological target: T9, FRMPD1, Q5SYB0
T9 sequence (Q5SYB0 52-145, limits assumed, looked up): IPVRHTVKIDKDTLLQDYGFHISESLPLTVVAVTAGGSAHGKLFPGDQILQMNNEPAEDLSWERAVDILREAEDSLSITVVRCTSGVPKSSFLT

DLG1_3, Q12959 = biological target: DLG1_3, Q12959
GOPC, Q9HD26 = biological target: GOPC, Q9HD26
AHNAK1, Q09666 = biological target: AHNAK1, Q09666
GRIP1_4, Q9Y3R0 = biological target: T10, GRIP1_4, Q9Y3R0
T10 sequence (Q9Y3R0 467-571, limits assumed, looked up): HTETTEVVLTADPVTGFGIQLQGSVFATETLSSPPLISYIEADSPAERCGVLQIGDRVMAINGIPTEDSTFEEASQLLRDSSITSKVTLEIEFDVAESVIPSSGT

DVL3, Q92997 = biological target: T11, DVL3, Q92997
T11 sequence (Q92997 244-331, limits assumed, looked up): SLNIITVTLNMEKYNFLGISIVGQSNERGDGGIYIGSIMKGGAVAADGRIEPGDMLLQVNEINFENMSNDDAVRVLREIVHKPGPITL

LIN7B, Q9HAP6 = biological target: T12, LIN7B, Q9HAP6
T12 sequence (Q9HAP6 88-185, limits assumed, looked up): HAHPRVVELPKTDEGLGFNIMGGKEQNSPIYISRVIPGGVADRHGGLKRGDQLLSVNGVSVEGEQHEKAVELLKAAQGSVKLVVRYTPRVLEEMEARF

APBA1_2, Q02410 = biological target: T13, APBA1_2, Q02410
T13 sequence (Q02410 742-832, limits assumed, looked up): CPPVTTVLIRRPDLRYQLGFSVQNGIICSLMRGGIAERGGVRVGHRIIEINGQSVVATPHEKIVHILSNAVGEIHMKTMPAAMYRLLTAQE

[1] = plain residues with an end cap or a label only (N-terminal biotin on a linker: ttds)
[2] = plain residues with an end cap or a label only (N-terminal biotin on a linker: ahx)

AHNAK1, Q09666, sequence (Q09666 4-100): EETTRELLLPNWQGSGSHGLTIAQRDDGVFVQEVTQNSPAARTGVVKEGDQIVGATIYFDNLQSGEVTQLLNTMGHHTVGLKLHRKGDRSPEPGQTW
TJP2_1, Q9UDY2, sequence (Q9UDY2 24-128): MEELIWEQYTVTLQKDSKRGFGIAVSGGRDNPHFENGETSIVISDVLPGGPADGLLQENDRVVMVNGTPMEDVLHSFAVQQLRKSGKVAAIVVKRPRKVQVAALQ
GRIP2_4, Q9C0E4, sequence (Q9C0E4 446-548): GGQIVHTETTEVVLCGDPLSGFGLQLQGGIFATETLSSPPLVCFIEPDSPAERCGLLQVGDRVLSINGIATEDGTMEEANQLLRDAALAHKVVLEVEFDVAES
SCRIB_3, Q14160, sequence (Q14160 999-1103): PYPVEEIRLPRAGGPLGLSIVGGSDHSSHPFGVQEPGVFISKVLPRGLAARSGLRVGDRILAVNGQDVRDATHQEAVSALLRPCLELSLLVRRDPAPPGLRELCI
PDLIM1, O00151, sequence (O00151 1-87): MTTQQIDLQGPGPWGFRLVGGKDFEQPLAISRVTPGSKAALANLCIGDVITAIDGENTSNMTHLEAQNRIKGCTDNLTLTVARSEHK
DLG1_3, Q12959, sequence (Q12959 457-571): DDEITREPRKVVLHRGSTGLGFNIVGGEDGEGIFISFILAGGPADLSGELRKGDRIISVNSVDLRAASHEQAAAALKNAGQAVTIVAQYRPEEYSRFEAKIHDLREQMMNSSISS
LNX1_2, Q8TBB1, sequence (Q8TBB1 371-470): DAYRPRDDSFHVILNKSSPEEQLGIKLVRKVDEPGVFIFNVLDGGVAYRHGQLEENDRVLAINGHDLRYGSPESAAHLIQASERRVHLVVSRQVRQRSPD
NHERF4_4, Q86UT5, sequence (Q86UT5 464-550): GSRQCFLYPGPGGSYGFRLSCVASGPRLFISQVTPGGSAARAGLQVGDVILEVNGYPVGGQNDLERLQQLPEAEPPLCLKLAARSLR
LDB3, O75112, sequence (O75112 1-94): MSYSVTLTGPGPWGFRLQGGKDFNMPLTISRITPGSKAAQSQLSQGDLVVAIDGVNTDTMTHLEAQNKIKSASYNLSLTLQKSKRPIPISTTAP

pKd (TJP2_1, Q9UDY2; [1]): below the threshold | pKd (MPP2, Q14168; [1]): below the threshold | pKd (PARD3B_1, Q8TEW8; [1]): 3.52 | pKd (PDLIM1, O00151; [1]): below the threshold | pKd (NHERF3_3, Q5T2W1; [1]): below the threshold | pKd (CARD11, Q9BXL7; [1]): 3.67 | pKd (GORASP2, Q9H8Y8; [1]): 3.66 | pKd (LDB3, O75112; [1]): below the threshold | pKd (SCRIB_3, Q14160; [1]): 4.78 | pKd (GRIP2_4, Q9C0E4; [1]): below the threshold | pKd (NHERF3_4, Q5T2W1; [1]): below the threshold | pKd (NHERF4_4, Q86UT5; [1]): below the threshold | pKd (LNX1_2, Q8TBB1; [1]): below the threshold | pKd (HTRA4, P83105; [1]): below the threshold | pKd (PDZD7_3, Q9H5P4; [1]): 3.86 | pKd (SHANK1, Q9Y566; [1]): below the threshold | pKd (FRMPD1, Q5SYB0; [1]): 3.6 | pKd (DLG1_3, Q12959; [1]): 4.01 | pKd (GOPC, Q9HD26; [1]): below the threshold | pKd (AHNAK1, Q09666; [1]): below the threshold | pKd (GRIP1_4, Q9Y3R0; [1]): below the threshold | pKd (DVL3, Q92997; [1]): below the threshold | pKd (LIN7B, Q9HAP6; [1]): below the threshold | pKd (APBA1_2, Q02410; [1]): 3.8
B1: FZD7, O75084 (peptide)
chain: SHSSKGETAV

pKd (TJP2_1, Q9UDY2; [2]): below the threshold | pKd (MPP2, Q14168; [2]): below the threshold | pKd (PARD3B_1, Q8TEW8; [2]): below the threshold | pKd (PDLIM1, O00151; [2]): below the threshold | pKd (NHERF3_3, Q5T2W1; [2]): below the threshold | pKd (CARD11, Q9BXL7; [2]): below the threshold | pKd (GORASP2, Q9H8Y8; [2]): 4.33 | pKd (LDB3, O75112; [2]): below the threshold | pKd (SCRIB_3, Q14160; [2]): 3.64 | pKd (GRIP2_4, Q9C0E4; [2]): below the threshold | pKd (NHERF3_4, Q5T2W1; [2]): 3.63 | pKd (NHERF4_4, Q86UT5; [2]): 3.49 | pKd (LNX1_2, Q8TBB1; [2]): 4.23 | pKd (HTRA4, P83105; [2]): 4.2 | pKd (PDZD7_3, Q9H5P4; [2]): 5.58 | pKd (SHANK1, Q9Y566; [2]): 3.66 | pKd (FRMPD1, Q5SYB0; [2]): below the threshold | pKd (DLG1_3, Q12959; [2]): 3.83 | pKd (GOPC, Q9HD26; [2]): 4.1 | pKd (AHNAK1, Q09666; [2]): 3.53 | pKd (GRIP1_4, Q9Y3R0; [2]): below the threshold | pKd (DVL3, Q92997; [2]): below the threshold | pKd (LIN7B, Q9HAP6; [2]): below the threshold | pKd (APBA1_2, Q02410; [2]): below the threshold
B2: PDZRN3, Q9UPQ7 (peptide)
chain: YNSFLSVTTV

pKd (TJP2_1, Q9UDY2; [1]): below the threshold | pKd (MPP2, Q14168; [1]): below the threshold | pKd (PARD3B_1, Q8TEW8; [1]): below the threshold | pKd (PDLIM1, O00151; [1]): below the threshold | pKd (NHERF3_3, Q5T2W1; [1]): below the threshold | pKd (CARD11, Q9BXL7; [1]): below the threshold | pKd (GORASP2, Q9H8Y8; [1]): 3.81 | pKd (LDB3, O75112; [1]): below the threshold | pKd (SCRIB_3, Q14160; [1]): 4.3 | pKd (GRIP2_4, Q9C0E4; [1]): below the threshold | pKd (NHERF3_4, Q5T2W1; [1]): below the threshold | pKd (NHERF4_4, Q86UT5; [1]): below the threshold | pKd (LNX1_2, Q8TBB1; [1]): 3.66 | pKd (HTRA4, P83105; [1]): 3.46 | pKd (PDZD7_3, Q9H5P4; [1]): 4.39 | pKd (SHANK1, Q9Y566; [1]): below the threshold | pKd (FRMPD1, Q5SYB0; [1]): below the threshold | pKd (DLG1_3, Q12959; [1]): 4.2 | pKd (GOPC, Q9HD26; [1]): 3.53 | pKd (AHNAK1, Q09666; [1]): below the threshold | pKd (GRIP1_4, Q9Y3R0; [1]): below the threshold | pKd (DVL3, Q92997; [1]): below the threshold | pKd (LIN7B, Q9HAP6; [1]): 3.81 | pKd (APBA1_2, Q02410; [1]): below the threshold
B3: RASSF6, Q6ZTQ3 (peptide)
chain: KLVIKTETTV
